Assay [1] deals with HLA-A*30:02. The experiment in a line: IEDB peptide-MHC binding, purified MHC/competitive/radioactivity; filed as Kd, often an IC50 or EC50 that approximates it; ≥ and ≤ were set here for values at or beyond the usual limits of such assays.
The target of assay [2] is HLA-B*35:01. Described as above.
Assay [3] concerns the target HLA-B*15:01. The description is as above.
Assay [4] deals with HLA-A*26:01. The assay is described as above.
Assay [5] has as its target HLA-B*53:01. The assay is described as above.
Assay [6] deals with HLA-A*32:01. Described as above.
Assay [7] addresses HLA-A*24:02. The assay is described as above.
The target of assay [8] is HLA-A*23:01. Described as above.
Assay [9] deals with HLA-A*11:01. Described as above. To be noted: source organism: Triticum aestivum.
For assay [10], the target named is HLA-A*33:01. The description is as above. Conditions: source organism: Triticum aestivum.
Assay [11] addresses HLA-A*29:02. Described as above.
In assay [12] the target is HLA-A*31:01. The description is as above. Conditions: source organism: Triticum aestivum.
Assay [13] deals with HLA-A*68:01. The assay is described as above. Conditions: source organism: Triticum aestivum.
Assay [14] concerns the target HLA-A*03:01. The description is as above. To be noted: source organism: Triticum aestivum.
Assay [15] concerns the target HLA-B*58:01. The assay is described as follows: IEDB peptide-MHC binding, purified MHC/direct/fluorescence; filed as Kd, often an IC50 or EC50 that approximates it; ≥ and ≤ were set here for values at or beyond the usual limits of such assays.
Assay [16] has as its target HLA-B*15:01. Described as above. Conditions: source organism: SARS-CoV1.
In assay [17] the target is HLA-A*01:01. The description is as above. Conditions: source organism: SARS-CoV1.
Assay [18] addresses HLA-A*01:01. The assay is described as follows: IEDB peptide-MHC binding, purified MHC/competitive/radioactivity; filed as Kd, often an IC50 or EC50 that approximates it; ≥ and ≤ were set here for values at or beyond the usual limits of such assays.
The target in assay [19] is HLA-A*30:01. The assay is described as above.
The target in assay [20] is HLA-B*40:01. The assay is described as follows: IEDB peptide-MHC binding, purified MHC/direct/fluorescence; filed as Kd, often an IC50 or EC50 that approximates it; ≥ and ≤ were set here for values at or beyond the usual limits of such assays.
Assay [21] concerns the target HLA-B*44:02. The assay is described as above.
Assay [22] deals with HLA-B*18:01. The description is as above.
Assay [23] concerns the target HLA-B*51:01. The assay is described as follows: IEDB peptide-MHC binding, purified MHC/competitive/radioactivity; filed as Kd, often an IC50 or EC50 that approximates it; ≥ and ≤ were set here for values at or beyond the usual limits of such assays.
Assay [24] deals with HLA-B*57:01. The assay is described as follows: IEDB peptide-MHC binding, purified MHC/direct/fluorescence; filed as Kd, often an IC50 or EC50 that approximates it; ≥ and ≤ were set here for values at or beyond the usual limits of such assays. Conditions: source organism: Vibrio alginolyticus 12G01.
Where [25] appears, read: source organism: Dengue virus 3 Sri Lanka/1266/2000.
Setting [26] is: source organism: Dengue virus 3 Martinique/1243/1999.
Setting [27] is: source organism: Vaccinia virus WR.
Where [28] appears, read: source organism: Triticum aestivum.
Where [29] appears, read: source organism: SARS coronavirus Tor2.
[30] abbreviates: source organism: Dengue virus 4 Philippines/H241/1956.
[31] abbreviates: source organism: Dengue virus 1 Brazil/97-11/1997.
Setting [32] is: source organism: Mammarenavirus choriomeningitidis.
Where [33] appears, read: source organism: Dengue virus 3 Singapore/8120/1995.
[34] abbreviates: source organism: Influenza A virus (A/tern/Australia/1/04(H2N5)).
[35] abbreviates: source organism: Mammarenavirus brazilense.
Where [36] appears, read: source organism: Dengue virus 2 Jamaica/1409/1983.
[37] abbreviates: source organism: Lassa virus Josiah.
The mark [38] stands for this setting: source organism: Mammarenavirus whitewaterense.
Setting [39] is: source organism: Mammarenavirus guanaritoense.
Where [40] appears, read: source organism: Dengue virus 1 Nauru/West Pac/1974.
[41] abbreviates: source organism: Influenza A virus (A/WSN/1933(H1N1)).

The source of these data is the Immune Epitope Database (IEDB).

The term Kd denotes the free concentration of one partner at which half of the binding sites on the other are occupied at equilibrium, for simple one-to-one binding.

For LIVSGIFPY, the equilibrium dissociation constant (Kd) in assay [1] (setting [25]) was not below 76900 nM; in assay [2] (setting [25]) it was 82.7 nM; in assay [3] (setting [25]) it was 2.91 nM; in [4] (setting [25]), 1160 nM.
For EPGVVSPTSY, the Kd in assay [2] (setting [26]) came out at 592 nM; in assay [5] (setting [26]), 313 nM.
For SIKNLVSQF, in assay [3] (setting [27]), the Kd came to 24.7 nM.
For SIISLFYTF, the Kd was 5.71 nM in assay [6] (setting [27]) and 1.37 nM in assay [3] (setting [27]).
As for GMYCRCSHG, the Kd in assay [3] (setting [27]) amounted to 216 nM.
Regarding VSFQQPQQQY, the Kd is not below 70300 nM in assay [7] (setting [28]); 0.209 nM in assay [1] (setting [28]); not below 38800 nM in assay [8] (setting [28]); 1770 nM in assay [9]; not below 70000 nM in assay [10]; 55.5 nM in assay [11] (setting [28]). The Kd in assay [12] was not below 70000 nM; in assay [4] (setting [28]) it was not below 26100 nM; in assay [13], not below 70200 nM; in [14], not below 70100 nM.
For FTERSDKSY, the Kd in [7] (setting [29]) is not below 77600 nM; in assay [1] (setting [29]), 53.5 nM; in [8] (setting [29]), not below 77800 nM; in assay [11] (setting [29]), 68.5 nM; in assay [4] (setting [29]), 6230 nM; in assay [15] (source organism: SARS-CoV1) it was 2800 nM. For the same sequence, the Kd in assay [16] was determined as 497 nM; in [17], 65 nM.
Consider ILGAQALPVY, for which the Kd was 80.8 nM in assay [1] (setting [30]), 4.87 nM in assay [3] (setting [30]) and not below 70400 nM in assay [18] (setting [30]).
Regarding PFGDSYIVI, in assay [8] (setting [30]), the Kd worked out at 723 nM.
As for IMMLKLLTEF, the Kd in [7] (setting [31]) worked out at 309 nM; in assay [3] (setting [31]) it was 6.24 nM.
As to MLFYLEEPI, the Kd in [6] (setting [27]) is 2.51 nM; in assay [3] (setting [27]), 45.2 nM.
In the case of PVSDLKYSW, in assay [5] (source organism: Dengue virus 4 Dominica/814669/1981), the Kd is 1690 nM.
For the sequence MAMTCIAVG, the Kd in assay [2] (setting [30]) stood at 116 nM.
As to EPEVANLDII, in assay [5] (setting [31]), the Kd turned out to be 8450 nM.
Turning to ILKKLSPYF, the Kd in assay [3] (setting [27]) was 1.18 nM.
Regarding LYAVATTIL, the Kd in assay [7] (setting [30]) is 79.5 nM.
In the case of KQSNTNKHM, the Kd in assay [3] (setting [27]) was found to be 27.8 nM.
For the sequence RFSTSLLFL, the Kd in assay [7] (setting [30]) turned out to be 77.1 nM.
For the sequence KTGESSRSY, the Kd in [1] (setting [32]) was 63.3 nM; in [6] (setting [32]) it was 14300 nM; in [19] (setting [32]), 1090 nM; in assay [18] (setting [32]), 3660 nM; in assay [11] (setting [32]), 16700 nM; in [4] (setting [32]), not below 77900 nM.
As to NVINYFNRM, in assay [3] (setting [27]), the Kd was 960 nM.
For the sequence EPVPMSTYGW, the Kd in assay [5] (setting [26]) amounted to 158 nM.
On to HMIAGVLFTF, for which the values for the Kd in assay [7] (setting [33]), in [3] (setting [33]) and in assay [4] (setting [33]) were 431 nM, 2.03 nM and 1160 nM, respectively.
In the case of SETQGTEKL, the Kd was 10.5 nM in assay [20] (setting [34]), not below 20000 nM in [21] (setting [34]) and 2040 nM in assay [22] (setting [34]).
On to HSIKRNYPY, for which the Kd in assay [1] (setting [35]) worked out at 42.3 nM; in [6] (setting [35]), 1720 nM; in assay [19] (setting [35]), 141 nM; in assay [18] (setting [35]), 53 nM; in [11] (setting [35]), 262 nM; in [4] (setting [35]), 660 nM.
On to VFIWFIFHF, for which the Kd in assay [3] (source organism: Vaccinia virus) is 642 nM.
Turning to VFFTFVLLL, the Kd in assay [7] (setting [26]) stood at 258 nM.
On to RQMEGEGIF, for which the Kd was found to be 140 nM in [6] (setting [36]) and 5.85 nM in assay [3] (setting [36]).
For the sequence SSGCYIHFF, the Kd in assay [1] (setting [37]) is 11500 nM; in assay [6] (setting [37]), not below 33600 nM; in assay [19] (setting [37]) it was 6860 nM; in [18] (setting [37]) it was 195 nM; in assay [11] (setting [37]) it was not below 10000 nM; in assay [4] (setting [37]), not below 64100 nM.
Regarding LPTALAFHL, the Kd in assay [5] (setting [31]) was found to be 2.16 nM; in assay [23] (setting [31]), 1410 nM.
As to KTFFWFNEV, the Kd in assay [1] (setting [35]) is 59.2 nM; in [6] (setting [35]), 7.26 nM; in assay [19] (setting [35]) it was 93.2 nM; in assay [18] (setting [35]), 11500 nM; in assay [11] (setting [35]), 18600 nM; in assay [4] (setting [35]) it was 12500 nM.
For KFWYVNHTGF, the Kd in [7] (setting [38]) came to 604 nM; in assay [8] (setting [38]), 80.9 nM; in assay [11] (setting [38]) it was 341 nM.
For EMCEDTVTY, the dissociation constant Kd came out at 14300 nM in [1] (setting [30]), 681 nM in assay [2] (setting [30]), 28.3 nM in [3] (setting [30]) and 3900 nM in assay [4] (setting [30]).
For the sequence FTPEAKNSTF, the values for the dissociation constant (Kd) in [7] (setting [30]) and in assay [4] (setting [30]) were 3020 nM and 653 nM, respectively.
In the case of VTYLALLAAF, the values for the Kd in assay [3] (setting [36]), in assay [18] (setting [36]) and in assay [4] (setting [36]) were 40.7 nM, 14800 nM and not below 69700 nM, respectively.
Consider MLHNFLPHM, for which the Kd in assay [3] (setting [27]) is 41 nM.
Turning to RSFTFKEGF, the Kd in assay [3] (setting [27]) stood at 34.8 nM.
Take ITEMLQKEY: the Kd is 172 nM in assay [1] (setting [37]); not below 77800 nM in assay [6] (setting [37]); 4750 nM in [19] (setting [37]); 18.8 nM in assay [18] (setting [37]); 7650 nM in assay [11] (setting [37]); not below 77900 nM in assay [4] (setting [37]).
For the sequence FFGALKFKI, the Kd amounted to 2150 nM in assay [7] (setting [39]), 207 nM in assay [8] (setting [39]) and 20.3 nM in [11] (setting [39]).
On to IALFLAHAI, for which, in [23] (setting [31]), the equilibrium dissociation constant (Kd) is 135 nM.
With YSDPLALREF, the Kd was found to be 1890 nM in [2] (setting [31]), 899 nM in assay [5] (setting [31]) and 21.3 nM in assay [18] (setting [31]).
For the sequence LAAIANQAV, the Kd in assay [23] (setting [26]) amounted to 1360 nM.
Turning to LYAVATTII, the figures for the Kd in [7] (setting [40]), in assay [8] (setting [40]) and in assay [23] (setting [40]) were 59.7 nM, 211 nM and 1390 nM, respectively.
For the sequence LAIPPTAGI, the Kd in assay [23] (setting [31]) was 393 nM.
For the sequence GQTGIQRTVF, the Kd in assay [3] (setting [30]) came out at 5.95 nM.
As to MSPCRMFSF, the Kd in assay [3] (setting [27]) amounted to 17.3 nM.
For STGNYVHCF, the Kd in assay [1] (setting [39]) was not below 20300 nM; in assay [6] (setting [39]) it was 12100 nM; in [19] (setting [39]), 2740 nM; in assay [18] (setting [39]) it was 1300 nM; in assay [11] (setting [39]), not below 35900 nM; in assay [4] (setting [39]), not below 69200 nM.
For WIAASIILEF, the Kd in assay [3] (setting [36]) was 6.22 nM.
Regarding VSEPELCLL, the Kd in assay [24] and in assay [15] (source organism: Vibrio alginolyticus 12G01) was not below 20000 nM each time.
On to AESRKLLLI, for which the results for the Kd in [20] (setting [41]), in [21] (setting [41]) and in [22] (setting [41]) were 158 nM, not below 53000 nM and not below 20000 nM, respectively.
Turning to TAVAPSMTM, the Kd in assay [2] (setting [36]) was determined as 15.7 nM.
